{"source": "paper PMC6002512", "about": "“The Defense-Related Isoleucic Acid Differentially Accumulates in Arabidopsis Among Branched-Chain Amino Acid-Related 2-Hydroxy Carboxylic Acids” (Frontiers in Plant Science, 2018)", "proteins": {"B1": {"name": "UGT76B1 (Arabidopsis thaliana) (protein)", "chain": "METRETKPVIFLFPFPLQGHLNPMFQLANIFFNRGFSITVIHTEFNSPNSSNFPHFTFVSIPDSLSEPESYPDVIEILHDLNSKCVAPFGDCLKKLISEEPTAACVIVDALWYFTHDLTEKFNFPRIVLRTVNLSAFVAFSKFHVLREKGYLSLQETKADSPVPELPYLRMKDLPWFQTEDPRSGDKLQIGVMKSLKSSSGIIFNAIEDLETDQLDEARIEFPVPLFCIGPFHRYVSASSSSLLAHDMTCLSWLDKQATNSVIYASLGSIASIDESEFLEIAWGLRNSNQPFLWVVRPGLIHGKEWIEILPKGFIENLEGRGKIVKWAPQPEVLAHRATGGFLTHCGWNSTLEGICEAIPMICRPSFGDQRVNARYINDVWKIGLHLENKVERLVIENAVRTLMTSSEGEEIRKRIMPMKETVEQCLKLGGSSFRNLENLIAYILSF", "notes": "full coding region including the 5' ATG codon cloned into pDEST15; N-terminal GST fusion; recombinant"}}, "type_in_all_cases": "biochemical, Arabidopsis thaliana", "key": {"[1]": {"substrate": "CC(C)CC(O)C(=O)O", "test": "HPLC with radiodetection of glucosylated product, non-linear regression", "conditions": "2 mM 14C-UDP-glucose, 0.1 M Tris-HCl pH 7.5, 30°C", "excerpt": "(§1) HPLC with radiodetection of glucosylated product, non-linear regression on UGT76B1"}, "[2]": {"substrate": "CC[C@H](C)[C@H](O)C(=O)O", "test": "HPLC with radiodetection of glucosylated product, non-linear regression", "conditions": "2 mM 14C-UDP-glucose, 0.1 M Tris-HCl pH 7.5, 30°C", "excerpt": "as §1"}, "purified protein": {"substrate": "O=C(O)c1ccccc1O", "test": "purified protein", "conditions": "2 mM UDP-glucose, 0.1 M Tris-HCl pH 7.5, 30°C"}}}
{"protein": "B1", "values": [{"measurement": "Km", "setting": "[1]", "value": "0.461 ± 0.079", "unit": "mM"}, {"measurement": "kcat", "setting": "[1]", "value": "0.582 ± 0.035", "unit": "s⁻¹"}, {"measurement": "kcat/Km", "setting": "[1]", "value": 1260, "unit": "M⁻¹ s⁻¹"}, {"measurement": "Km", "setting": "[2]", "value": "0.472 ± 0.097", "unit": "mM"}, {"measurement": "kcat", "setting": "[2]", "value": "0.914 ± 0.067", "unit": "s⁻¹"}, {"measurement": "kcat/Km", "setting": "[2]", "value": 1940, "unit": "M⁻¹ s⁻¹"}, {"measurement": "Km", "setting": "purified protein", "value": "0.151 ± 0.028", "unit": "mM"}, {"measurement": "kcat", "setting": "purified protein", "value": "0.331 ± 0.016", "unit": "s⁻¹"}, {"measurement": "kcat/Km", "setting": "purified protein", "value": 2200, "unit": "M⁻¹ s⁻¹"}]}
